Reference: patent US20150125397A1, “DUAL SPECIFIC BINDING PROTEINS DIRECTED AGAINST IMMUNE CELL RECEPTORS AND AUTOANTIGENS” (ABBVIE INC., priority 2013, published 2015)

T1: mIgM (Mus musculus, UniProt P01872)
T1 sequence (P01872 1-454): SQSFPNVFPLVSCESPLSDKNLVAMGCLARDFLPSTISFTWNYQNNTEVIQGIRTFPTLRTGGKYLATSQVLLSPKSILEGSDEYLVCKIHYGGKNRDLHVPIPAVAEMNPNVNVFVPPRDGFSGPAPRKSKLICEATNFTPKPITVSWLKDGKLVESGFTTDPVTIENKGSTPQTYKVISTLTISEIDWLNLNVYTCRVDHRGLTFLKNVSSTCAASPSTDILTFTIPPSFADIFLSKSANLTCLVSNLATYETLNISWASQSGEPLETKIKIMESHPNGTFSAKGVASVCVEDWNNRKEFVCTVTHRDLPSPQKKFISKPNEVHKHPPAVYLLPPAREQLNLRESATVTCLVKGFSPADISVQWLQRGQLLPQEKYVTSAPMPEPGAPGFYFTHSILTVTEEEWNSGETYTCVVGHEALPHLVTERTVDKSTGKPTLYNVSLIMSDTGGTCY

B1: DVD3759: DVD-Ig: VD1 mIgM (B7.6), SL linker, VD2 DNA(PA4); heavy SEQ ID NO 64, light 65 (antibody)
heavy: QVQLKESGPGLVKPSLTLSLTCTVSGFSLNGYGVIWVRQPPGKGLEWMGVIWGNGNTNYNSTLKSRLSISRDTSKSQVFLKMNNLQTEDTAMYFCARSENYYSSPGYFAYWGQGTLVTVSSASTKGPEVQLVESGGGLVKPGGSLKLSCVASGFTFSTYAMSWVRQTPTKRLEWVATISRGGVSTYYPDTVKGRFTISRDNAKNTLYLQMSSLRSEDTAMYYCARPPTIVTTWFAYWGQGTLVTVSS
light: NTVMTQSPTSMFISVGDRVTMNCKASQNVGSDVDWYQQKTGQSPKLLISGTSNRYTGVPDRFTGSGSGTDFTLTISNMQAEDLAVYYCLQYNYNPTFGAGTKLELKRTVAAPSVFIFPPDVVMTQTPLSLPVSLGDQASISCRSSQSLVHSNGNTYLHWYLQKPGQSPKLLIYKVSNRFSGVPDRFSGSGSGTDFTLKISRVEAEDLGAYFCSQSTHVPYTFGGPTRLEIKR
B2: DVD3754: DVD-Ig: VD1 DNA(PA4), SL linker, VD2 mIgM (B7.6); heavy SEQ ID NO 54, light 55 (antibody)
heavy: EVQLVESGGGLVKPGGSLKLSCVASGFTFSTYAMSWVRQTPTKRLEWVATISRGGVSTYYPDTVKGRFTISRDNAKNTLYLQMSSLRSEDTAMYYCARPPTIVTTWFAYWGQGTLVTVSSASTKGPQVQLKESGPGLVKPSLTLSLTCTVSGFSLNGYGVIWVRQPPGKGLEWMGVIWGNGNTNYNSTLKSRLSISRDTSKSQVFLKMNNLQTEDTAMYFCARSENYYSSPGYFAYWGQGTLVTVSS
light: DVVMTQTPLSLPVSLGDQASISCRSSQSLVHSNGNTYLHWYLQKPGQSPKLLIYKVSNRFSGVPDRFSGSGSGTDFTLKISRVEAEDLGAYFCSQSTHVPYTFGGPTRLEIKRTVAAPSVFIFPPNTVMTQSPTSMFISVGDRVTMNCKASQNVGSDVDWYQQKTGQSPKLLISGTSNRYTGVPDRFTGSGSGTDFTLTISNMQAEDLAVYYCLQYNYNPTFGAGTKLELKR

Columns and labels:
[1] = molecular target: T1, mIgM; test: IgM binding ELISA (mouse IgM); settings: for IgM Binding EC50: mIgM-coated ELISA, half-log dilution 10 μg/ml-0.01 μg/ml
Experimental: Reactivity of the DVD-Ig proteins with mIgM was determined by enzyme-linked immunosorbent assay (ELISA). Briefly, each well of an Ultra Cruz 96 well microtiter plate (Santa Cruz Biotechnology, Dallas, Tex.) was coated with mIgM at a concentration of 1 μg/ml in 100 μl of PBS. The plate was covered in plastic wrap and incubated overnight at 4° C. Each well of the plate was then washed 3× with 300 μl of PBST. After the final wash, 200 μl of blocking buffer (1% BSA in PBS) was added to each well and the plate incubated at RT for 2 hours. The plate was then washed as above. Rows B-H of the microtiter plate were filled with 100 μl of dilution buffer (1% BSA in PBST). The DVD-Ig proteins were then diluted to […] in dilution buffer and 147 μl of a DVD-Ig protein was added in duplicate to row A of a 96 well plate. For a ½ log dilution, 47 μl was transferred from row A to row B. The pipette tips were replaced with clean tips and 47 μl from row B was transferred to row C. The serial transfers were repeated as above until row G. To assess the binding of the secondary detection reagent to the coated IgM, the final transfer 47 μl was only transferred from G1-G10 to H1-H10 and wells H11 and H12 were left containing 100 μl of dilution buffer. To maintain a 100 μl assay volume, 47 μl was removed from wells H1-H10 and G11-G12 and discarded. After the serial dilution was completed, the plate was incubated for 1-2 hours at RT. The plate was washed as above and then 100 μl of horseradish peroxidase conjugated goat α-hIgG Fc specific, diluted 1:3,000 in dilution buffer, was added to each well. The plate was incubated for 1 hour at RT and then washed 4× as above. The plate was developed by adding 100 μl of 3′,3′,5′,5′-Tetramethylbenzidine (TMB) substrate solution to each well and incubating the plate in the dark for 10-15 minutes. The enzymatic reaction was stopped by adding 100 μl of 1M H2SO4 to each well. The plate was read at 450 nm on an EnVision 2102 multilabel reader (Perkin Elmer, Waltham, Mass.).
DVD-Ig proteins DVD3751-DVD3760 were characterized by IgM binding assay at half-log dilution starting at 10 μg/ml-0.01 μg/ml according to the method of Example 2.5.
IgM binding ELISA: Titrations of the DVD-Ig™ proteins (10 μg/ml to 0.01 μg/ml) were added to ELISA plates coated with murine IgM. Bound antibody was detected with biotinylated anti-human IgG and streptavidin-HRP. EC50 were calculated from the titration curve using Prism6.

[2] = tested on: AM14 TLR9−/− B cells; test: [3H]thymidine incorporation, BCR/TLR9 stimulation of AM14 TLR9-/- B cells; type: cell-based, mouse; settings: at 5 mg/ml; 24 hours, then 6 hours pulse
Source text: The AM14 B cell receptor (BCR) transgenic mouse has been described previously (Sweet et al. (2010) Autoimmun 43(8): 607-18). Briefly, AM14 is a BCR comprising the AM14 heavy chain and the Vk8 light chain that recognizes murine IgG2a (mIgG2a) of the “a” allotype. Between 95-98% of B cells in a mouse positive for the AM14 heavy chain and Vk8 light chain express the AM14 BCR. To generate AM14 B cells that are deficient in TLR9, TLR7 or FcγRIIB, the AM14 and Vk8 genes were bred to the appropriate knock out mice.
Primary murine B cells were purified by positive selection using BD Imag™ CD45R/B220 magnetic particles (BD Biosciences, San Jose, Calif.). Briefly, B cells were cultured in RPMI containing, pencillin-streptomycin, β-mercaptoethanol, and 5% heat-inactivated fetal calf serum (FCS) in 96 well flat bottom plates at a density of 4×10^5 cells/well. For stimulation through the BCR and TLR9, B cells were treated with a titration of 0.3 μg/ml-0.03 μg/ml of PA4 or 5 μg/ml to 0.15 μg/ml of a DVD-Ig protein (DVD3751, DVD3752, DVD3754, DVD3755, DVD3759 and DVD3760), unless otherwise noted. Cells were also treated with 1 μg/ml 1826, an experimental ligand for TLR9, as a control. After 24 hours, the cells were pulsed for 6 hours with [3H]thymidine (Perkin Elmer, Waltham Mass.). Incorporation of [3H]thymidine was quantified via a liquid scintillation beta counter (Trilux 1450 MicroBeta, PerkinElmer) according to standard methods.
DVD-Ig proteins DVD3751-DVD3760 were characterized by ^3H incorporation at […] according to the method of Example 2.6.

Row | Molecule | potency in IgM binding assay ([1]; among DVD3751-DVD3760) | IgM Binding EC50 [1] [µg/mL] | 3H incorporation AM14 TLR9−/− [2] | IgM binding by direct binding ELISA ([1]; Example 6, FIG. 8B)
1 | B1 | highest potency | 0.04116 | (970) | 
2 | B2 |  | 0.1167 | (1597) | intermediate IgM binding affinity
